T1: recombinant soluble human IL-6 receptor (SR344) (human, UniProt P08887 20-344, biotinylated (sites not given) where immobilized via streptavidin or used in phage ELISA)
T1 construct: also called soluble IL-6 receptor; membrane-type IL-6 receptor (when biotinylated and immobilized on the chip)
T1 sequence (looked up): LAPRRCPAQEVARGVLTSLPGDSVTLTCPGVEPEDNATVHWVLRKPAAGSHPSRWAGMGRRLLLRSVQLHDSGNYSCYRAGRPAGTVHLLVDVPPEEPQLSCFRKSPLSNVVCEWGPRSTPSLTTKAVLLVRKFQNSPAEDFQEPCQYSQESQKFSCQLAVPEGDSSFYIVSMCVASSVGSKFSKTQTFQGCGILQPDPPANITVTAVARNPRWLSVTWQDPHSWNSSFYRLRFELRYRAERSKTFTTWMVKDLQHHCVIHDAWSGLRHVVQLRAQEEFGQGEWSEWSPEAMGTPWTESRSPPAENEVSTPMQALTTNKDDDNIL

T2: soluble mouse IL-31 receptor (mouse, UniProt Q8K5B1 19-499)
T2 sequence (looked up): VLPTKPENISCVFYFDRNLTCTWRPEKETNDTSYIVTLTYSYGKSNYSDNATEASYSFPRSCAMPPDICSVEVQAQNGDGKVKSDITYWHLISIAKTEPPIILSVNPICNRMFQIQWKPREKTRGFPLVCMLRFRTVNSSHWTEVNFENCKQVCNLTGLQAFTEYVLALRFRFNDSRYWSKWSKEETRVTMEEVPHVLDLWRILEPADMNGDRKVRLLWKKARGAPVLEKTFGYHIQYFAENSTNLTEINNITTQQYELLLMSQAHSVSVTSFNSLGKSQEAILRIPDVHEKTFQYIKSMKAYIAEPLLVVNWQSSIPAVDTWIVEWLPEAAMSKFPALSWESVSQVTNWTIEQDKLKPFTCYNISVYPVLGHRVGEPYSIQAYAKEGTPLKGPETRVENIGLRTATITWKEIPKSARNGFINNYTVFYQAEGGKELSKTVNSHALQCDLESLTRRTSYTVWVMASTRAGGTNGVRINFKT


Tests used:
[1] = target: T1, recombinant soluble human IL-6 receptor …; test: SPR Biacore T100, integrated RU of SR344 bound over ten cycles, 37 C
Protocol: The produced pH-dependent binding clones described above were analyzed using a Biacore T100™ surface plasmon resonance system (GE Healthcare) for their ability to bind to the antigen SR344 multiple times at pH 5.8 and pH 7.4. More specifically, the analysis was carried out as follows. All the measurements were carried out at 37° C. First, the sample antibodies described above were bound onto a recomb-protein A/G (Pierce)-immobilized sensor chip by amine-coupling, where the mobile phase buffer was 10 mM MES (pH 5.8), 150 mM NaCl, and 0.05% TWEEN® 20 (polyoxyethelene sorbitan monolaurate) (step 1). SR344 adjusted to a concentration of about 40 nM was injected as an analyte for 3 minutes at pH 7.4 and allowed to bind (the buffer for injected SR344 was 10 mM MES (pH 7.4), 150 mM NaCl, and 0.05% TWEEN® 20 (polyoxyethelene sorbitan monolaurate)) (step 2). Subsequently, the injection of SR344 was discontinued and a mobile phase of pH 5.8 was allowed to flow for about 70 seconds to expose the antibody/SR344 complex under acidic conditions (step 3). Ten sets of this binding (step 2)/acidity exposure (step 3) process were continuously repeated to observe the sensorgram in real-time, which is shown in FIG. 11. […] In the 10-set repetition of the binding (step 2) and acidic exposure (step 3), almost all H170/L82 and CLH5/L73 antibodies were able to bind to new antigens in each set. […]

[2] = target: T1, recombinant soluble human IL-6 receptor …; test: SPR Biacore T100, biotinylated SR344 on streptavidin chip (model of membrane IL-6 receptor), antibody 0.5 ug/mL as analyte, bound at pH 7.4, dissociation at pH 5.8, 37 C
Protocol: (§1) The binding to membrane IL-6 receptor was evaluated by evaluating the binding to the IL-6 receptor immobilized onto a sensor chip. SR344 was biotinylated according to a method known to persons skilled in the art, and the biotinylated SR344 was immobilized on the sensor chip via streptavidin by utilizing the affinity between streptavidin and biotin. All the measurements were carried out at 37° C., and the mobile phase buffer contained 10 mM MES (pH 5.8), 150 mM NaCl and 0.05% TWEEN® 20 (polyoxyethelene sorbitan monolaurate). The pH-dependent binding clones were injected therein under the condition of pH 7.4 and allowed to bind to SR344 (injection sample buffer: 10 mM MES (pH 7.4), 150 mM NaCl, 0.05% TWEEN® 20 (polyoxyethelene sorbitan monolaurate)), and the pH-dependent dissociation of each clone at the mobile phase pH of 5.8 was observed (FIG. 10).
(§2) The dissociation rate […]) at pH 5.8 was calculated using Biacore T100™ Evaluation Software (GE Healthcare) by fitting only the dissociation phase at pH 5.8, where 0.5 μg/mL of the sample was bound in 10 mM MES (pH 7.4), 150 mM NaCl, and 0.05% TWEEN® 20 (polyoxyethelene sorbitan monolaurate), and dissociated in 10 mM MES (pH 5.8), 150 mM NaCl, and 0.05% TWEEN® 20 (polyoxyethelene sorbitan monolaurate). Similarly, the dissociation rate (kd(1/s)) at pH 7.4 was calculated using Biacore T100™ Evaluation Software (GE Healthcare) by fitting only the dissociation phase at pH 7.4, where 0.5 μg/mL of the sample was bound in 10 mM MES (pH 7.4), 150 mM NaCl, and 0.05% TWEEN® 20 (polyoxyethelene sorbitan monolaurate), and dissociated in 10 mM MES (pH 7.4), 150 mM NaCl, and 0.05% TWEEN® 20 (polyoxyethelene sorbitan monolaurate).

[3] = target: T1, recombinant soluble human IL-6 receptor …; test: SPR Biacore T100, biotinylated SR344 on streptavidin chip (model of membrane IL-6 receptor), antibody 0.5 ug/mL as analyte, bound at pH 7.4, dissociation at pH 7.4, 37 C
Protocol: as §1, §2

[4] = target: T1, recombinant soluble human IL-6 receptor …; test: SPR Biacore T100, antibody on protein A/G chip, SR344 analyte, 37 C
Protocol: (§3) Kinetic analyses of antigen-antibody reactions at pH 5.8 and pH 7.4 were carried out using a Biacore™ T100 surface plasmon resonance system (GE Healthcare) on the four antibodies: humanized PM1 antibody (WT) and H3pI/L73, CLH5/L73, and H170/L82 produced in Examples 2 and 4 (buffer: 10 mM MES (pH 7.4 or pH 5.8), 150 mM NaCl, and 0.05% TWEEN® 20 (polyoxyethelene sorbitan monolaurate)). Various antibodies were bound onto a sensor chip immobilized with recomb-protein A/G (Pierce) by amine coupling. SR344 adjusted to concentrations of 9.8 to 400 nM was injected to the chip as an analyte. […] All the measurements were carried out at 37° C. Association rate constants kₐ (1/Ms) and dissociation rate constants kd (1/s) were calculated using Biacore T100™ Evaluation Software (GE Healthcare), and dissociation constants KD (M) were calculated on the basis of those values (Table 5). Moreover, the ratio of the affinities at pH 5.8 and pH 7.4 were calculated for each clone to evaluate pH-dependent binding. All the measurements were carried out at 37° C.

[5] = target: T1, recombinant soluble human IL-6 receptor …; test: SPR Biacore T100, antibody on protein A/G chip, SR344 analyte, pH 5.8, 37 C
Protocol: as §3

[6] = target: T1, recombinant soluble human IL-6 receptor …; test: SPR Biacore T100, antibody on protein A/G chip, SR344 analyte, pH 7.4, 37 C
Protocol: as §3

[7] = target: T1, recombinant soluble human IL-6 receptor …; test: SPR Biacore T100, biotinylated SR344 on streptavidin chip (model of membrane IL-6 receptor), antibody 0.5 ug/mL as analyte, 37 C
Protocol: as §1, §2

[8] = target: T1, recombinant soluble human IL-6 receptor …; test: SPR Biacore T100, antibody on protein A/G chip, SR344 analyte, 37 C, ratio of pH 5.8 to pH 7.4
Protocol: as §3

[9] = target: T2, soluble mouse IL-31 receptor; test: SPR Biacore T100, antibody on protein A/G chip, soluble mouse IL-31 receptor analyte, 25 C
Protocol: (§4) Kinetic analysis of antigen-antibody reactions at pH 5.5 and pH 7.4 was carried out using a Biacore T100™ surface plasmon resonance system (GE Healthcare) for the two types of antibodies prepared as mentioned above: Anti-IL31R wild type and Anti-IL31R clone 1 (buffer: DPBS(−) (pH 7.4 or pH 5.5), 150 mM NaCl, 0.01% TWEEN® 20 (polyoxyethelene sorbitan monolaurate), 0.02% NaN₃). The antibodies were bound to a sensor chip on which recomb-protein A/G (Pierce) was immobilized by amine coupling, and then the soluble mouse IL-31 receptor (prepared according to the method described in WO 2007/142325) adjusted to an appropriate concentration was injected therein as an analyte. All the measurements were carried out at 25° C. Association rate constants kₐ (1/Ms) and dissociation rate constants kd (1/s) were calculated using Biacore T100™ Evaluation Software (GE Healthcare), and dissociation constants KD (M) were calculated based on those values (Table 16). Furthermore, the ratio of affinity at pH 5.5 and pH 7.4 was calculated for each clone to evaluate the pH-dependent binding.

[10] = target: T2, soluble mouse IL-31 receptor; test: SPR Biacore T100, antibody on protein A/G chip, soluble mouse IL-31 receptor analyte, pH 7.4, 25 C
Protocol: as §4

[11] = target: T2, soluble mouse IL-31 receptor; test: SPR Biacore T100, antibody on protein A/G chip, soluble mouse IL-31 receptor analyte, pH 5.5, 25 C
Protocol: as §4

[12] = target: T2, soluble mouse IL-31 receptor; test: SPR Biacore T100, antibody on protein A/G chip, soluble mouse IL-31 receptor analyte, 25 C, ratio of pH 5.5 to pH 7.4
Protocol: as §4

| Binder | total amount of antigen bound over ten cycles relative to WT [1] [fold] | koff [2] [s⁻¹] | koff [3] [s⁻¹] | pH-dependent binding (affinity ratio) relative to WT [4] [fold] | Kd [5] [µM] | koff [5] [s⁻¹] | kon [5] [M⁻¹ s⁻¹] | Kd [6] [µM] | koff [6] [s⁻¹] | kon [6] [M⁻¹ s⁻¹] | kd ratio pH 5.8/pH 7.4 [7] | KD (pH 5.8)/KD (pH 7.4) [8] | pH-dependent binding ability relative to WT [9] [fold] | Kd [10] [µM] | koff [10] [s⁻¹] | kon [10] [M⁻¹ s⁻¹] | Kd [11] [µM] | koff [11] [s⁻¹] | kon [11] [M⁻¹ s⁻¹] | KD (pH 5.5)/KD (pH 7.4) [12] |
| --- | --- | --- | --- | --- | --- | --- | --- | --- | --- | --- | --- | --- | --- | --- | --- | --- | --- | --- | --- | --- |
| CLH5/L73 (antibody, IgG1, V domains shown, expressed and purified as IgG) VH: QVQLQESGPGLVKPSETLSLTCAVSGYSISHDHAWSWVRQPPGEGLEWIGHISYSGITNYNPHLKGRVTISRDTSKNQFSLKLSSVTAADTAAYYCARFLARITAHDHWGEGTLVTVSS VL: DIQMTQSPSSLSASVGDSVTITCQASQHISSHLNWYQQKPGKAPELLIYYGSHLHSGVPSRFSGSGSGTDFTFTISSLEAEDAATYYCGQGNRLPYTFGQGTKVEIE | ~4 | 0.00567 | 0.00104 | > 15 | 0.074 | 0.028 | 380000 | 0.0011 | 0.00079 | 710000 | 5.5 | 66.1 |  |  |  |  |  |  |  |  |
| Anti-IL31R clone 1 (antibody, human IgG1, lambda, V domains shown, H chain (c1) / L chain (WT)) VH: not shown VL: LPVLTQPPSVSVAPGQTARITCGGNNIGSKTVYWYQQEPGQAPVLVVYDDTDRPAGIPERFSGANSGNTATLTISRVEAGDEADYYCQVWDSSTDHGVFGGGTKLTVLG |  |  |  |  |  |  |  |  |  |  |  |  | ~300 | 0.022 | 0.0033 | 170000 | 22 | 0.024 | 1100 | 1000 |

— patent US20180282719A1 (published 2018)
